Measured values as given in patent US20220251176A1 (GREEN CROSS, published 2022).

B1: recombinant human CD3 (receptor)
chain: DGNEEMGGITQTPYKVSISGTTVILTCPQYPGSEILWQHNDKNIGGDEDDKNIGSDEDHLSLKEFSELEQSGYYVCYPRGSKPEDANFYLYLRARVCENCMEMD

Key:
[1] = molecular target: T1, anti-EGFR/anti-MSLN/anti-CD3 trispecific antibody Cetuximab/HMI323-A15; assay: BLI (Octet), antigen immobilised on APS sensor, antibody 6.25-100 nM
T1 construct: Trispecific antibody: knob-into-hole heterodimer of two single chains, 2+1 IgG format

[2] = molecular target: T2, MSLN on H226 and AsPC-1 cancer cell lines (UniProt Q13421 296-598); assay: flow cytometry on AsPC-1 cells (overexpress MSLN and EGFR), PE anti-human IgG
T2 construct: whole, on cells; The same cells also overexpress EGFR; also called MSLN-expressing tumor cells; MSLN+ tumor cells
T2 sequence (Q13421 other isoform, or with tags, fused parts or gaps limits assumed): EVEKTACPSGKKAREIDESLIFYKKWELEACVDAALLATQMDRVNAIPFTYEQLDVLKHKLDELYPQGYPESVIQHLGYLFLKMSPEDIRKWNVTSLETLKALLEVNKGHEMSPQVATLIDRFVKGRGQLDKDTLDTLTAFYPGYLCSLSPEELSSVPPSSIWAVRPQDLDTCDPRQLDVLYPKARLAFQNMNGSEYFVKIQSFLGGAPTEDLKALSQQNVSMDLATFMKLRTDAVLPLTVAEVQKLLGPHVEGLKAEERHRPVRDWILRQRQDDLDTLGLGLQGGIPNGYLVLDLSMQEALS
Experimental: (§1) Then, light was blocked for one and a half hours and incubation was performed at 4° C. Subsequently, 200 μl of FACS buffer was added thereto. Centrifugation was performed at 2,000 rpm for 3 minutes at 4° C., and then the supernatant was removed.
(§2) Then, light was blocked for 30 minutes and incubation was performed at 4° C. Subsequently, 200 μl of FACS buffer was added thereto, and centrifugation was performed at 2,000 rpm for 3 minutes at 4° C.; and then the supernatant was removed to obtain a sample.
(§3) 200 μl of BD CYTOFIX™ was added to the sample so that the cells were suspended, and analysis was performed by BD LSR FORTESSA™.

[3] = molecular target: T3, recombinant human MSLN (human, UniProt Q13421 296-580, limits assumed); assay: BLI (Octet), antigen immobilised on APS sensor, antibody 6.25-100 nM
T3 construct: Immobilised on an APS sensor in the Octet assay; also called mesothelin
T3 sequence (Q13421 other isoform, or with tags, fused parts or gaps limits assumed): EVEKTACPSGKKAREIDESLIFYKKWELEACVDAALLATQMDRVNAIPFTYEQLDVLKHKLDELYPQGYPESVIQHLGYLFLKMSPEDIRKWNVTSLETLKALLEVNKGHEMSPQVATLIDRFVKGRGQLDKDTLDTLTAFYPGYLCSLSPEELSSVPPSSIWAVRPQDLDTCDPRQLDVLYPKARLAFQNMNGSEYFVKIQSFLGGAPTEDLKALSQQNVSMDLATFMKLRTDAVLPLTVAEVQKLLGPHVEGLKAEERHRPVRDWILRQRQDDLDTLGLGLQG

[4] = molecular target: T4, CD3 on Jurkat E6-1 T cell line (UniProt P07766 23-207); assay: flow cytometry on Jurkat E6-1 cells (express CD3), PE anti-human IgG
T4 construct: whole, on cells; On the cells CD3 is the whole complex
Experimental: as §1, §2, §3

[5] = molecular target: B1; assay: BLI (Octet), antigen immobilised on APS sensor, antibody 6.25-100 nM
[6] = molecular target: T2, MSLN on H226 and AsPC-1 cancer cell …; assay: cell-based or functional assay
[7] = molecular target: T2, MSLN on H226 and AsPC-1 cancer cell …; assay: flow cytometry on H226 cells (overexpress MSLN and EGFR), PE anti-human IgG
Experimental: as §1, §2, §3

Binder | Kd [1] | koff [1] | kon [1] | EC50 [2] | Kd [3] | koff [3] | kon [3] | EC50 [4] | Kd [5] | koff [5] | kon [5] | IC50 of PBMC-mediated cell killing; AsPC-1; PBMC:target cell 10:1; 24 hr [6] | IC50 of PBMC-mediated cell killing; AsPC-1; PBMC:target cell 10:1; 48 hr [6] | IC50 of PBMC-mediated cell killing; AsPC-1; PBMC:target cell 20:1; 48 hr [6] | IC50 of PBMC-mediated cell killing; H226; PBMC:target cell 10:1; 24 hr [6] | IC50 of PBMC-mediated cell killing; H226; PBMC:target cell 10:1; 48 hr [6] | IC50 of PBMC-mediated cell killing; H226; PBMC:target cell 20:1; 48 hr [6] | EC50 [7]
B1 | 13.5 nM | 0.00625 s⁻¹ | 463000 M⁻¹ s⁻¹ | – | – | – | – | – | – | – | – | – | – | – | – | – | – | –
anti-MSLN/anti-CD3 bispecific antibody HMI323/HMI323-A15 (bispecific antibody, human IgG1, kappa, lambda, L234A L235A, Knob-into-hole heterodimer of two single chains, 2+1 IgG format) chain 1: DIQMTQSPSSLSASVGDRVTITCRASQDVSTAVAWYQQKPGKAPKLLIYSASYRYPGVPSRFSGSGSGTDFTLTISSLQPEDFATYYCQQHYSTPWTFGGGTKLEIKRTVAAPSVFIFPPSDEQLKSGTASVVCLLNNFYPREAKVQWKVDNALQSGNSQESVTEQDSKDSTYSLSSTLTLSKADYEKHKVYACEVTHQGLSSPVTKSFNRGECSGGGSGGGSEGGGSEGGGSEGGGSEGGGSGGGSGEVQLVQSGAEVKKPGTSVKVSCKASGYSFTSYFIQWVRQAPGQGLEWIGWIFPGSGNTKYSQKFQGRVTITRDTSTSTAYMELSSLRSEDTAVYYCARSGGYQYYFDYWGQGTLVTVSSASTKGPSVFPLAPSSKSTSGGTAALGCLVKDYFPEPVTVSWNSGALTSGVHTFPAVLQSSGLYSLSSVVTVPSSSLGTQTYICNVNHKPSNTKVDKKVGGGGSGGGGSGGGGSQAVVTQEPSLTVSPGGTVTLTCRSSTGAVTTSNYANWVQQKPGQAPRGLIGGTNKRAPWTPARFSGSLLGGKAALTLSGAQPEDEAEYYCALWYSNLWVFGGGTKLTVLGQPKANPTVTLFPPSSEELQANKATLVCLISDFYPGAVTVAWKADGSPVKAGVETTKPSKQSNNKYAASSYLSLTPEQWKSHRSYSCQVTHEGSTVEKTVAPTECSGGGSGGGSEGGGSEGGGSEGGGSEGGGSGGGSGEVQLVESGGGLVQPGGSLKLSCAASGFTFNTYAMNWVRQASGKGLEWVGRIRSKYNNYATYYADSVKDRFTISRDDSKNTAYLQMNSLKTEDTAVYYCVRHGNFGNSYVSWFAYWGQGTLVTVSSASTKGPSVFPLAPSSKSTSGGTAALGCLVKDYFPEPVTVSWNSGALTSGVHTFPAVLQSSGLYSLSSVVTVPSSSLGTQTYICNVNHKPSNTKVDKKVEPKSCDKTHTCPPCPAPEAAGGPSVFLFPPKPKDTLMISRTPEVTCVVVDVSHEDPEVKFNWYVDGVEVHNAKTKPREEQYNSTYRVVSVLTVLHQDWLNGKEYKCKVSNKALPAPIEKTISKAKGQPREPRVYTLPPCRDELTKNQVSLTCLVKGFYPSDIAVEWESNGQPENNYKTTPPVLVSDGSFTLYSKLTVDKSRWQQGNVFSCSVMHEALHNHYTQKSLSLSPG chain 2: DIQMTQSPSSLSASVGDRVTITCRASQDVSTAVAWYQQKPGKAPKLLIYSASYRYPGVPSRFSGSGSGTDFTLTISSLQPEDFATYYCQQHYSTPWTFGGGTKLEIKRTVAAPSVFIFPPSDEQLKSGTASVVCLLNNFYPREAKVQWKVDNALQSGNSQESVTEQDSKDSTYSLSSTLTLSKADYEKHKVYACEVTHQGLSSPVTKSFNRGECSGGGSGGGSEGGGSEGGGSEGGGSEGGGSGGGSGEVQLVQSGAEVKKPGTSVKVSCKASGYSFTSYFIQWVRQAPGQGLEWIGWIFPGSGNTKYSQKFQGRVTITRDTSTSTAYMELSSLRSEDTAVYYCARSGGYQYYFDYWGQGTLVTVSSASTKGPSVFPLAPSSKSTSGGTAALGCLVKDYFPEPVTVSWNSGALTSGVHTFPAVLQSSGLYSLSSVVTVPSSSLGTQTYICNVNHKPSNTKVDKKVEPKSCDKTHTCPPCPAPEAAGGPSVFLFPPKPKDTLMISRTPEVTCVVVDVSHEDPEVKFNWYVDGVEVHNAKTKPREEQYNSTYRVVSVLTVLHQDWLNGKEYKCKVSNKALPAPIEKTISKAKGQPREPQVCTLPPSRDELTENQVSLTCLVKGFYPSDIAVEWESNGQPENNYKTTPPVLDSDGSFFLYSWLTVDKSRWQQGNVFSCSVMHEALHNHYTQKSLSLSPG | – | – | – | 4.7 nM | 7.79 nM | 0.000774 s⁻¹ | 99400 M⁻¹ s⁻¹ | 58 nM | 52.6 nM | 0.0242 s⁻¹ | 461000 M⁻¹ s⁻¹ | 0.406 nM | 0.144 nM | 0.0304 nM | 0.0844 nM | 0.0503 nM | 0.0153 nM | 6.2 nM
